Laboratory results: US20030099984A1 (TEXAS A AND M UNIVERSITY SYSTEM, published 2003)

What was measured:
[1] = molecular target: the molecule itself; assay: yeast two-hybrid, beta-galactosidase filter assay; bait and prey RNase H-like protein
[2] = molecular target: T1, untagged hen egg white lysozyme (hen, UniProt P00698 19-147); assay: farwestern blot (FIG. 13), control lane
T1 construct: Negative control; also called HEWL

[3] = molecular target: T2, untagged RNase A (UniProt P61823 27-150); assay: farwestern blot (FIG. 13), control lane
T2 construct: Negative control
T2 sequence: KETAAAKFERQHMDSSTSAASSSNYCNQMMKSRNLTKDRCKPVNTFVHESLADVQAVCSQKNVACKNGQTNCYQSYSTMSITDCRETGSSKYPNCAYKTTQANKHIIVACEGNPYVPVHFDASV

[4] = molecular target: T3, untagged bovine serum albumen (bovine, UniProt P02769 25-607); assay: Ni column pull down under physiological conditions, SDS PAGE autoradiogram
T3 construct: Negative control; also called BSA
T3 sequence (P02769 25-607 limits assumed): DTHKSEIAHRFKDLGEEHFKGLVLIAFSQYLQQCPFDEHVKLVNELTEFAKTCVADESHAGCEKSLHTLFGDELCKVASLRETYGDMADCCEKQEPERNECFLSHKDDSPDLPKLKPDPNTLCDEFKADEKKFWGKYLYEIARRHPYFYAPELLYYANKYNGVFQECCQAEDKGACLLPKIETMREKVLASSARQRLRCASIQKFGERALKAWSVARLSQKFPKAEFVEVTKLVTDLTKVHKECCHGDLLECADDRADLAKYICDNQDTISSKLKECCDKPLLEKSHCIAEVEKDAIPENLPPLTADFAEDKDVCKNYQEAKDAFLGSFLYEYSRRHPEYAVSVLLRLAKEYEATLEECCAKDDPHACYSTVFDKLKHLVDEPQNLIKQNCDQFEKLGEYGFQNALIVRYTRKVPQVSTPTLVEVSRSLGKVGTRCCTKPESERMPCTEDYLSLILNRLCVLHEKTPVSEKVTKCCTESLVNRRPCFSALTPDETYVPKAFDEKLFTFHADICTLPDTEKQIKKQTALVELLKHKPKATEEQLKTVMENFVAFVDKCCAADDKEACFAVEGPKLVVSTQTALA

T1 sequence (P00698 19-147): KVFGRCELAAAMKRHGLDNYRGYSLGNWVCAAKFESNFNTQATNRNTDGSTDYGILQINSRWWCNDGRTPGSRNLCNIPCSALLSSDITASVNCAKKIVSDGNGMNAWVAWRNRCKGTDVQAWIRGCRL

B1: RNase H-like protein (sugarcane), yeast two-hybrid fusion (other)
chain: GHYGRGEHCMKNMAASYSQDAQLDLVLPDAPVDASASRSEHSSQLASSNWRSVIQNSPPDLLCGCGRPAIRRTAETAKNNGRIFRTCPACKIWIWQDLLDSYVNALISYCRDASIDSLQSELESSRLLISEKQAQISRLEKQLETLQPLISKYTEQSRSIAQASIPSSLFFLEACSLRHQRRRVNENQGGANFKRSYWSD
notes: Prey clone from the cDNA library of silenced sugarcane plant #16; same id for bait and prey fusions
[1]
  binding result: binds

B2: 35S labeled RNase H-like protein transcription and translation (TNT) product (other)
chain: B1 chain
modifications: labeled with 35S Cysteine
notes: Made in rabbit reticulocyte lysate; used as probe in farwestern blots and as the labelled partner in the pull down
[2]
  binding result: no binding
[3]
  binding result: no binding
[4]
  binding result: no binding
